Reference: article PMC6693562 (Cell Reports, 2019)

Target: the molecule itself
Assay: SEC-RALS

Protein	stoichiometry N
MBP-OD^WT (human 53BP1 oligomerization domain, residues 1233-1288, fused to N-terminal maltose-binding protein) (domain or fragment, UniProt Q12888 1233-1288, looked up) GHVLHRHMRTIREVRTLVTRVITDVYYVDGTEVERKVTEETEEPIVECQECETEVS	4
MBP-OD with mutation of D1256 (D1256A) (domain or fragment, human, UniProt Q12888 1233-1288, looked up) GHVLHRHMRTIREVRTLVTRVITAVYYVDGTEVERKVTEETEEPIVECQECETEVS	2
